Laboratory results as given in paper PMC4601640, “Stability of the Human Hsp90-p50^Cdc37 Chaperone Complex against Nucleotides and Hsp90 Inhibitors, and the Influence of Phosphorylation by Casein Kinase 2” (Molecules, 2015).

T1: human full-length p50^Cdc37 (residues 1-378) (human), Q16543
T1 chain: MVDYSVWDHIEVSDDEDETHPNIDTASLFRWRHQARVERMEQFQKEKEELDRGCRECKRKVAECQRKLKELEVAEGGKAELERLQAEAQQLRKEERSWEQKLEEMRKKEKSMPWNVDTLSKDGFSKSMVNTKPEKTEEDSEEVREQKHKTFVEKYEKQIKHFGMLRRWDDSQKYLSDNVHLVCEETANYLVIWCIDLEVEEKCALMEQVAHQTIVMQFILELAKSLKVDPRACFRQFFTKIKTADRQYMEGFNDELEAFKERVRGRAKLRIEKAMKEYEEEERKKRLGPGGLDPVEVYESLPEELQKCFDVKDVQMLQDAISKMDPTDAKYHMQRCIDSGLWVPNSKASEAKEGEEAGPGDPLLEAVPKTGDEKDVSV


Legend:
[1] = target: the different Hsp90 proteins; experiment: ITC; p50^Cdc37 (200 µM) titrated into Hsp90 (20 µM); 50 mM HEPES pH 7.5, 10 mM MgCl2, 30 °C
[2] = target: T1, human full-length p50^Cdc37 (residues …); experiment: SEC; analytical Superdex200 10/300 GL, room temperature, 0.3 mL/min; 85 µM protein in 50 mM HEPES pH 7.5, 50 mM KCl, 5 mM MgCl2, 1 mM DTT; fractions on SDS-PAGE; conditions: remark: other sources report otherwise

| Kd [1] [nM] | stoichiometry N [2] | Binder |
| --- | --- | --- |
| 1100 to 1900 | – | human full-length p50^Cdc37 (residues 1-378) (natural protein) MVDYSVWDHIEVSDDEDETHPNIDTASLFRWRHQARVERMEQFQKEKEELDRGCRECKRKVAECQRKLKELEVAEGGKAELERLQAEAQQLRKEERSWEQKLEEMRKKEKSMPWNVDTLSKDGFSKSMVNTKPEKTEEDSEEVREQKHKTFVEKYEKQIKHFGMLRRWDDSQKYLSDNVHLVCEETANYLVIWCIDLEVEEKCALMEQVAHQTIVMQFILELAKSLKVDPRACFRQFFTKIKTADRQYMEGFNDELEAFKERVRGRAKLRIEKAMKEYEEEERKKRLGPGGLDPVEVYESLPEELQKCFDVKDVQMLQDAISKMDPTDAKYHMQRCIDSGLWVPNSKASEAKEGEEAGPGDPLLEAVPKTGDEKDVSV |
| – | 2 | human full-length p50^Cdc37 (residues 1-378), Q16543 1-378 (natural protein) MVDYSVWDHIEVSDDEDETHPNIDTASLFRWRHQARVERMEQFQKEKEELDRGCRECKRKVAECQRKLKELEVAEGGKAELERLQAEAQQLRKEERSWEQKLEEMRKKEKSMPWNVDTLSKDGFSKSMVNTKPEKTEEDSEEVREQKHKTFVEKYEKQIKHFGMLRRWDDSQKYLSDNVHLVCEETANYLVIWCIDLEVEEKCALMEQVAHQTIVMQFILELAKSLKVDPRACFRQFFTKIKTADRQYMEGFNDELEAFKERVRGRAKLRIEKAMKEYEEEERKKRLGPGGLDPVEVYESLPEELQKCFDVKDVQMLQDAISKMDPTDAKYHMQRCIDSGLWVPNSKASEAKEGEEAGPGDPLLEAVPKTGDEKDVSV |
